Each block holds one binder with its values, some of them ahead of it.
Assays:
[1] = target: T1, TRAIL-R1-hFc, fusion protein of the extracellular region of human TRAIL-R1 and the Fc region of human IgG1 (human, UniProt O00220 24-239); assay: ELISA, TRAIL-R1-hFc coated plate, purified antibody
T1 construct: extracellular domain; Bought (ALEXIS); not shown: Fc region of human IgG1
T1 sequence (looked up): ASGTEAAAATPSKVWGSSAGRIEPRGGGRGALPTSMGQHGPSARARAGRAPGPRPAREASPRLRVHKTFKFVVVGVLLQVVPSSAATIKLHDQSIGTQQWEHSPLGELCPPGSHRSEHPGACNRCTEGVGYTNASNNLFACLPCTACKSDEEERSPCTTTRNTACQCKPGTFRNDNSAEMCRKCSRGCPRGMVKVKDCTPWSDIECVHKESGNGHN

[2] = target: T2, human TRAIL-R2 on the surface of cells (Colo205, U251, Jurkat, normal human hepatocytes) (human, UniProt O14763 56-440); assay: cell-based or functional assay
[3] = target: T1, TRAIL-R1-hFc, fusion protein of the …; assay: ELISA, TRAIL-R1-hFc coated plate, hybridoma culture supernatant
[4] = target: T2, human TRAIL-R2 on the surface of cells …; assay: cell-based or functional assay; remark: listed apart in the source
[5] = target: T3, TRAIL-R2-hFc, fusion protein of the extracellular region of human TRAIL-R2 and the Fc region of human IgG1 (human, UniProt O14763 56-210); assay: SPR (BIACORE 2000), TRAIL-R2-hFc immobilised on CM5, bivalent model
T3 construct: extracellular domain; Bought (ALEXIS) or made with TRAIL-R2 amino acids 1 to 183 as the extracellular region; not shown: Fc region of human IgG1
Protocol: TRAIL-R1-hFc or TRAIL-R2-hFc was diluted at a final concentration of 10 μg/ml with 10 mM Acetic Acid (pH 4.0), and then immobilized on a sensor chip CM5 by the amine coupling method. The immobilization conditions are as follows. NHS activation and ethanolamine blocking were performed according to the methods described in the instructions. Coupling of TRAIL-R1-hFc and that of TRAIL-R2-hFc were performed by manual injection as described in the instructions.
Each antibody of the dilution series was added in order at a flow rate of 20 μl/minute by the KINJECT method (binding for 2 minutes and dissociation for 6 minutes), thereby obtaining a sensorgram. […] Each antibody of the dilution series was added in order at a flow rate of 20 μl/minute by the KINJECT method (binding for 2 minutes and dissociation for 2 minutes), thereby obtaining sensorgrams. For each antibody, kinetics analysis was performed using each sensorgram and BIAevaluation software ver3.2 (Biacore). As a fitting model, global fitting was performed using a Bivalent model, so that the binding rate constant and the dissociation rate constant were found. In addition, a dissociation constant (Kd value) was calculated from the two constants. Also, the sensorgrams were used for fitting after the subtraction of control cells and buffer correction. In the tables, “kass” indicates the binding rate constant, “kdiss” indicates the dissociation rate constant, and “KD” indicates the dissociation constant.

[6] = target: T3, TRAIL-R2-hFc, fusion protein of the …; assay: ELISA on a plate coated with TRAIL-R2-hFc, detection with HRP-labeled goat anti-human Ig kappa, absorbance at 450 nm (method of Example 18)
Protocol: 50 μl of the thus prepared solution was added to each well of a 96-well microplate for ELISA (Maxisorp, Nunc) and incubated for 1 hour at room temperature or at 4° C. overnight, thereby coating TRAIL-R1-hFc or TRAIL-R2-hFc to the microplate. […] Thus, a microplate having each well coated with TRAIL-R1-hFc or TRAIL-R2-hFc was prepared.
The culture supernatant of each hybridoma (50 μl) was added to each well, reaction was performed at room temperature for 1 hour, and then each well was washed three times in 0.1% Tween20-containing PBS (PBS-T). Subsequently, horseradish peroxidase-labeled goat anti-human Igκ antibodies (50 μl/well, Biosource International) were diluted 2000 times in PBS-T containing 10% Block Ace (Dainippon Pharmaceutical Co., Ltd.). 50 μl of the thus prepared solution was added to each well, and incubation was then performed at room temperature for 30 minutes; The microplate was washed three times with PBS-T, and then 50 μl of a TMB chromogenic substrate solution (DAKO) was added to each well, followed by incubation at room temperature for 20 minutes. 0.5M sulfuric acid was added (50 μl/well) to each well to stop reaction.
For the measurement of the binding activity, 96-well microplate for ELISA (Maxisorp, Nunc) to which TRAIL-R2-hFc was coated was used.

- binding result [3]: no binding
B2: human anti-TRAIL-R2 monoclonal antibody H-48-2 (antibody, IgG1, V domains shown)
VH: QLQLQESGPGLVKPSETLSLTCTVSGGSISSSSYYWGWVRQPPGKGLEWIGSIHYSGSTFYNPSLKSRVTISVDTSKNQFSLKLSSVTAADTTVYYCARQGSTVVRGVYYYGMDVWGQGTTVTVSS
VL: not shown
notes: IgG1, human kappa light chain; Hybridoma FERM BP-7599; also called H-48-2-IgG1

- EC50 (read off the curve) [6]: ~0.03 µg/mL
B5: recombinant 0304 antibody of which subclass is IgG4 (antibody, V domains shown)
VH: QVQLVQSGAEMKKPGASVKVSCKTSGYTFTNYKINWVRQAPGQGLEWMGWMNPDTDSTGYPQKFQGRVTMTRNTSISTAYMELSSLRSEDTAVYYCARSYGSGSYYRDYYYGMDVWGQGTTVTVSS
VL: EIVLTQSPATLSLSPGERATLSCRASQSVSSYLAWYQQKPGQAPRLLIYDASNRATGIPARFSGSGSGTDFTLTISSLEPEDFAVYYCQQRSNWPLTFGGGTKVEIK

- EC50 (read off the curve) [6]: ~0.03 µg/mL
B6: recombinant 0304 antibody of which subclass is IgG1 (antibody, V domains shown)
VH: QVQLVQSGAEMKKPGASVKVSCKTSGYTFTNYKINWVRQAPGQGLEWMGWMNPDTDSTGYPQKFQGRVTMTRNTSISTAYMELSSLRSEDTAVYYCARSYGSGSYYRDYYYGMDVWGQGTTVTVSS
VL: EIVLTQSPATLSLSPGERATLSCRASQSVSSYLAWYQQKPGQAPRLLIYDASNRATGIPARFSGSGSGTDFTLTISSLEPEDFAVYYCQQRSNWPLTFGGGTKVEIK

- binding result [1]: no binding
B7: human anti-TRAIL-R2 monoclonal antibody 0304 (from the hybridoma) (antibody, IgG4, V domains shown)
VH: QVQLVQSGAEMKKPGASVKVSCKTSGYTFTNYKINWVRQAPGQGLEWMGWMNPDTDSTGYPQKFQGRVTMTRNTSISTAYMELSSLRSEDTAVYYCARSYGSGSYYRDYYYGMDVWGQGTTVTVSS
VL: EIVLTQSPATLSLSPGERATLSCRASQSVSSYLAWYQQKPGQAPRLLIYDASNRATGIPARFSGSGSGTDFTLTISSLEPEDFAVYYCQQRSNWPLTFGGGTKVEIK
notes: IgG4, human kappa light chain
- LD50, Colo205 cells, 48 h, with goat anti-human IgG cross-linker [2]: 0.02 µg/mL
- LD50, normal human hepatocytes, 24 h, with goat anti-human IgG cross-linker [2]: 0.002 µg/mL

The remaining lines, values behind:

B1: human anti-TRAIL-R2 monoclonal antibody KMTR1 (antibody, IgG1, V domains shown)
VH: EVQLLESGGGLVQPGRSLRLSCAASGFTFSSYAMSWVRQAPGKGLEWVSAISGSGGSRYYADSVKGRFTISRDNSKNTLYLQMNSLRAEDTAVYYCAKESSGWFGAFDYWGQGTLVTVSS
VL: EIVLTQSPDFQSVTPKEKVTITCRASQSIGSSLHWYQQKPDQSPKLLIKYASQSFSGVPSRFSGSGSGTDFTLTINSLEAEDAAAYYCHQSSSLPITFGQGTRLEIK
notes: IgG1, human kappa light chain
- binding result [1]: binds
- LD50, Colo205 cells, 48 h, with goat anti-human IgG cross-linker [2]: 0.04 µg/mL
- LD50, normal human hepatocytes, 24 h, with goat anti-human IgG cross-linker [2]: > 10 µg/mL

B3: human anti-TRAIL-R2 monoclonal antibody E-11-13 (antibody, IgG1, V domains shown)
VH: QLQLQESGPGLVKPSETLSLTCTVSGGSIISKSSYWGWIRQPPGKGLEWIGSIYYSGSTFYNPSLKSRVTISVDTSKNQFSLKLSSVTAADTAVYYCARLTVAEFDYWGQGTLVTVSS
VL: EIVLTQSPATLSLSPGERATLSCRASQSVSSFLAWYQQKPGQAPRLLIYDASNRATGIPARFSGSGSGTDFTLTISSLEPEDFAVYYCQQRSNWPLTFGPGTKVDIK
notes: Hybridoma FERM BP-7698 / BP-7770; also called E-11-3
- LD50, Jurkat cells, 48 h [4]: 0.1 µg/mL
- LD50, U251 cells, 48 h [4]: 0.3 µg/mL
- Kd [5]: 0.0729 nM
- koff [5]: 3.84e-05 s⁻¹
- kon [5]: 527000 M⁻¹ s⁻¹
- LD50, Colo205 cells, 48 h, with goat anti-human IgG cross-linker [2]: 0.11 µg/mL
- LD50, normal human hepatocytes, 24 h, with goat anti-human IgG cross-linker [2]: 2.8 µg/mL

B4: human anti-TRAIL-R2 monoclonal antibody L-30-10 (antibody, IgG1, V domains shown)
VH: QLQLQESGPGLVKPSETLSLTCTVSGGSISSRSNYWGWIRQPPGKGLEWIGNVYYRGSTYYNSSLKSRVTISVDTSKNQFSLKLSSVTVADTAVYYCARLSVAEFDYWGQGILVTVSS
VL: EIVLTQSPATLSLSPGERATLSCRASQSVSSFLAWYQQKPGQAPRLLIYDASNRATGSPARFSGSGSGTDFTLTISSLEPEDFAVYYCQQRSDWPLTFGPGTKVDIK
notes: Hybridoma FERM BP-7700 / BP-7769
- LD50, Jurkat cells, 48 h [4]: 0.13 µg/mL
- LD50, U251 cells, 48 h [4]: 0.17 µg/mL
- Kd [5]: 2.35 nM
- koff [5]: 0.00144 s⁻¹
- kon [5]: 613000 M⁻¹ s⁻¹
- LD50, Colo205 cells, 48 h, with goat anti-human IgG cross-linker [2]: 0.1 µg/mL
- LD50, normal human hepatocytes, 24 h, with goat anti-human IgG cross-linker [2]: 24 µg/mL
